From patent US20190031771A1 (University of Pennsylvania, published 2019)
Residue numbers refer to the chain shown, from its start.

Molecular target: T1, human ADAMTS13 (human, UniProt Q76LX8 75-1427)
T1 construct: ELISA: full-length recombinant ADAMTS13 coated on plates (Technoclone); Activity assays: endogenous ADAMTS13 of normal human plasma; also called full-length human recombinant ADAMTS13; VWF-cleaving protease
T1 sequence (looked up): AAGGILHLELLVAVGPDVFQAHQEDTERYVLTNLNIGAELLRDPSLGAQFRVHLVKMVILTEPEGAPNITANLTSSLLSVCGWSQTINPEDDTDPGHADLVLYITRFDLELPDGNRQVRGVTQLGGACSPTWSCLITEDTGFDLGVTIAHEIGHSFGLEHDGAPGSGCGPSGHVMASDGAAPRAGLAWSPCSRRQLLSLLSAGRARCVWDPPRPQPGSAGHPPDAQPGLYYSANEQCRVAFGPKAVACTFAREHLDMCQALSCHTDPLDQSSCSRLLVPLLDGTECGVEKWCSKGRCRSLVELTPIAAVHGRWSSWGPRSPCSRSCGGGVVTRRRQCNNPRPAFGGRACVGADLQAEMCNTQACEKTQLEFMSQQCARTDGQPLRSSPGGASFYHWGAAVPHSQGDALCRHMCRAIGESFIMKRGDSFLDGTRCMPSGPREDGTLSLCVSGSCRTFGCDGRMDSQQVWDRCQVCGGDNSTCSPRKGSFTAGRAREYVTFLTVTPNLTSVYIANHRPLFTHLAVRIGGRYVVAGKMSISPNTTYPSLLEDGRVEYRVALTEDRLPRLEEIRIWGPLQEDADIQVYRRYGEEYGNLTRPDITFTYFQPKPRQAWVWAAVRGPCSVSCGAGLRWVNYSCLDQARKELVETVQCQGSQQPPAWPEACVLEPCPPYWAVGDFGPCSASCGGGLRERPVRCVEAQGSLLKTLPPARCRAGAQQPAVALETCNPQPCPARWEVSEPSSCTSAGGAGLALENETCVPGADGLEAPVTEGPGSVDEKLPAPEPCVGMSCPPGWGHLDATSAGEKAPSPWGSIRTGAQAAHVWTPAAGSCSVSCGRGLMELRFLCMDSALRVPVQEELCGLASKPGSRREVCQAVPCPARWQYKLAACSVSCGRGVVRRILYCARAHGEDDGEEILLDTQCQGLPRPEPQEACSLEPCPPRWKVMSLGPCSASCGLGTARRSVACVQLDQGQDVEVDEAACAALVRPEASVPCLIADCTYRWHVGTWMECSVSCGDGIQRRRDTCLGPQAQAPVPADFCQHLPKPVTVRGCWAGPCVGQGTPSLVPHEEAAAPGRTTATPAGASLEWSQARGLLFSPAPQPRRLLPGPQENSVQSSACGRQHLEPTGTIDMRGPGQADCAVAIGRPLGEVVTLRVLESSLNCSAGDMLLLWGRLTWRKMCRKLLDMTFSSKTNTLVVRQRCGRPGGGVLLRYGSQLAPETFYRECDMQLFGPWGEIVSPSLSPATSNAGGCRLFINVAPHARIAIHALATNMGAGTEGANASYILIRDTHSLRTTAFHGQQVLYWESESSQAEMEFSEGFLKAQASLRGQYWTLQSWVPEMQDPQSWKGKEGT
Test: phage ELISA on ADAMTS13-coated plates (positive: >10-fold absorbance above background)

B1: scFv 1-451 (scFv, V domains shown)
VH: QVQLVQSGGGLVQPGRSLRLSCAASGFIFDDYAMHWVRQAPGKGLEWVSGISWNSGSIGYADSVKGRFTISRDNAKNSLYLQMNSLRAEDTALYYCAKDPNSLYRSGSFDYWGQGTLVTVSS
VL: not shown
**Q.** Does B1 bind?
**A.** Result: binds

B2: scFv 1-440 (scFv, V domains shown)
VH: B1 VH with Q1E, V5L, Q6E
VL: ELQMTQSPSSLSASVGDRVTITCRASQSISSYLNWYQQKPGKAPKLLIYAASSLESGVPSRFSGSGSGTDFTLTISSLQPEDFASYYCQQSYSTPFTFGPGTKVDIK
**Q.** Does B2 bind?
**A.** Result: binds

B3: scFv z1-201 (scFv, V domains shown)
VH: B1 VH with S7F
VL: not shown
**Q.** Does B3 bind?
**A.** Result: binds

B4: scFv 1-401 (scFv, V domains shown)
VH: QVQLVQSGAELKKPGSSVKVSCKASGGAFTMYTINWVRQAPGRGLEWMGRIIPILGITDYAQKFQGRGTITADKSTSTAYLELSGLTSEDTAVYYCAREFSGGNYFDFWGQGTLVTVSS
VL: ELVLTQPPSVSVAPGKTARMTCGGNNIGGYSVHWYQQKPGQAPVLVVYHDSDRPSGIPERFTGSNSGNMATLTISRVEAGDEADYYCQVWDSSNDHSVFGGGTELTVL
**Q.** Does B4 bind?
**A.** Result: binds

B5: scFv 1-458 (scFv, V domains shown)
VH: B4 VH
VL: ELVLTQPPSVSVAPGKTARIPCGGNNIGGKSVHWYQQRPGQAPVLVVYSDSVRPSGIPERFSGSNSGNTATLTISRVEAGDEADYYCQVWDRSSDHVVFGGGTQLTVL
**Q.** Does B5 bind?
**A.** Result: binds

B6: scFv 2-108 (scFv, V domains shown)
VH: EVQLVQSGGGLVQPGGSLRLSCAASGFTFSSYWMSWVRQAPGKGLEWVANIKQDGSEKHYVDSMKGRFTISRDNGKNSLYLQMNSLRAEDTAVYYCARSPGYYFDYWGQGTLVTVSS
VL: ELVVTQPPSASGTPGQRVTISCSGSSSNIGSNYVYWYEQLPGTAPKLLIYRNNQRPSGVPDRFSGSKSGTSASLAISGLRSEDEADYYCAAWDDSLRVYVFGTGTKLTVL
**Q.** Does B6 bind?
**A.** Result: binds

B7: scFv 1-410 (scFv, V domains shown)
VH: QVQLQESGGGVVQPGGSLRLSCAASGFTFDDYTMHWVRQAPGKGLEWVSLISWDGGSTYYADSVKGRFTISRDNSKNSLYLQMNSLRTEDTALYYCAKDNGYDILTDYLDSWGQGTLVTVSS
VL: ELQMTQSPSSLSASVGDRVTITCQASQDISNYLNWYQQKPGKAPKLLIYDASNLETGVPSRFSGSGSGTDFTFTISSLQPEDIATYYCQQYDNLPLTFGQGTRLEIK
**Q.** Does B7 bind?
**A.** Result: binds

B8: scFv 1-423 (scFv, V domains shown)
VH: QVQLVQSGAEVKRPGSSVKVSCKASGGTFSSYTISWVRQAPGQGLEWMGSIIPVLDVTSYAQQFQGRVTITADKSTKTAYMDLSSLTFEDTALYFCSIGRYTYGHFDTWGQGTQVTVSS
VL: ELVLTQPPSVSVAPGKTARVTCGGGNIGDKAVHWYQQRPGQAPVLVVFGDSARPSGIPERFSGSNSGNTATLTISRVEVGDEADYYCQVWDSNSDHQVFGGGTKLTVL
**Q.** Does B8 bind?
**A.** Result: binds

B9: scFv 1-441 (scFv, V domains shown)
VH: QVQLQESGGGVVQPGRSLRLSCTDSGFTFSRYAMHWVRQAPGKGLEWVAGISYDGSYEYYADSVKGRFTISRDNSKNTLYVQMNSLRGEDTAVYYCARDLRGGEDYWGQGTLVTVSS
VL: ELVVTQPPSVSAAPGQKVTISCSGSTSNIGNNYVSWYQQFPGTAPKLLIYDNNKRPSGIPDRFSGSKSGTSATLGITGLQTGDEADYYCGTWDSSLSAVVFGGGTKVTVL
**Q.** Does B9 bind?
**A.** Result: binds

B10: scFv 1-450 (scFv, V domains shown)
VH: QVQLVQSGAEVKKPGSSMNVSCKASGGTFSRHTINWVRQAPGQGLEWMGSIIPILGITNYAQNFQGRLTFSADKSTNTAYVELSGLRSEDTAVYYCASGDYYYDMAVWGQGTTVAVTS
VL: ELVLTQPPSVSVSPGQTARITCSGDALPKQYAYWYQQKPGQAPVLVIYKDSERPSGIPERFSGSSSGTTATLTISGVQAEDEADYYCQSAYSSGTVVFGGGTELTVL
**Q.** Does B10 bind?
**A.** Result: binds

B11: scFv 1-432 (scFv, V domains shown)
VH: QVQLVQSGAEVKKPLSSVKVSCKASGGTFNMYDINWVRQAPGQGLEWMGGIVPILGVTNYAQNFQGRLTITADKSTSTAYMELSSLRSEDTAVYYCARGVAAGWNAFDVWGQGTMVTVSA
VL: ELVLTQPPSMSVVPGQTARITCGGDNIGSKSVHWYQQKPGQAPVLVVNDDTERPSGIPDRFSGSNSGNTATLVISRVGAGDEADYFCQVWDSRSDHQVFGGGTKLTVL
**Q.** Does B11 bind?
**A.** Result: binds

B12: scFv 2-206 (scFv, V domains shown)
VH: QVQLVQSGADVKKPGSSVKVSCKASGGTFSSYTINWVRQAPGQGLEWMGRIVPILDIANYAQKFQGRVTITADKSTSTAYMELSSLTSEDTAVYYCARDRGYDNKYGAYWGQGTLVTVSS
VL: ELVLTQPPSVSVAPGQTARITCGGNNIGSKNVHWYQQKPGQAPVLVVYDDSDRPSGIPERFSGSNSGNTATLTISRVEAGDEADYYCQVWDSSSDHWVFGGGTKVTVL
**Q.** Does B12 bind?
**A.** Result: binds

B13: scFv 2-304 (scFv, V domains shown)
VH: QVHLVQSGAEVKKPGSSVKVSCKASGGTFSSYAISWVRQAPGQGLEWMGGITPILGVTNYSQKFQGRVTVTADISTTTAYMELSSLTSEDTAVYYCARDQGYANDYGAYWGQGTLVTVSS
VL: B12 VL with G28E, D52G, V105L
**Q.** Does B13 bind?
**A.** Result: binds

B14: scFv 1-415 (scFv, V domains shown)
VH: QVQLQESGGGVVQPGRSLRLSCAASGFTFRNYAMHWVRQAPGKGLEWVAVISYDGGKEYYADSVKGRFTISRDNSKNTLYLQMNSLRAEDTAVYYCARDTFSYYDFWRAFDYWGQGTLVTVSS
VL: ELELTQPPSVSGSPGQSITISCTGTSSDVGGYNYVSWYQQHPGKAPKLMIYEVSNRPSGVSNRFSGSKSGNTASLTISGLQAEDEADYYCSSYTSSSTVVFGGGTKLTVL
**Q.** Does B14 bind?
**A.** Result: binds

B15: scFv 1-437 (scFv, V domains shown)
VH: QVQLVQSGGGLVKPGGSLRLSCAASGFIFSNYIMNWVRQAPGKGLEWVSSISSSGSYIYYADSVKGRFTISRDNAKNSMYLQMNSLRGEDTAVYYCAAAYDFWSGYYFWGQGTTVTVSS
VL: B14 VL with E3A, S97T, T98P, V99Y, G103T, L107V
**Q.** Does B15 bind?
**A.** Result: binds

B16: scFv 1-413 (scFv, V domains shown)
VH: QVQLVQSGSEVKKPGSSVKVSCKASGGTFSSHTLSWVRQAPGQGLEWMGEIIPILDRVKYSQNFQGRVTITADKSTNTTYMELSSVRSEDTAVYYCVSNGWSNFDFWGQGTLVTVSP
VL: ELELTQPPSVSVSPGQTARITCSGGALPKHYVYWYQQKPGQAPAVVIYKDTERPSGIPERFSGSTSGATVTLTISGVQADDDAVYFCQSVDSNDTSWIFGGGTKLTVL
**Q.** Does B16 bind?
**A.** Result: binds

B17: scFv 1-418 (scFv, V domains shown)
VH: B16 VH with L34V, K59N, S61A, Q62E, E82D, V86L, V97T, P117S
VL: B16 VL with E3V, V32A, A68T
**Q.** Does B17 bind?
**A.** Result: binds

B18: scFv 1-417 (scFv, V domains shown)
VH: QVQLVQSGTEVKKFGSSVKVSCKASGGSFSSYTISWVRQAPGQGLEWMGSFIPILERANYAQKFQGRVTFTADKTTSTAYMELGGLRSQDTAVYYCARDLGDFGDSWGQGTLVTVSS
VL: ELVLTQPPSVSVAPGKTARITCGGNNIGSKTVHWYQQKPGQAPVVVVSDDSERPSGIPERFSGSNSGNTATLTISRVEGGDEADYYCQVWDSSNDQVVFGGGTELTVL
**Q.** Does B18 bind?
**A.** Result: binds
